Measurements published in patent US20200079850A1 (SUTRO BIOPHARMA, published 2020).

T1: recombinant human LAG3 protein (rhLAG3), HIS-tagged (ACRO) or biotinylated (R&D Cat #2319-C3) (human, UniProt P18627 23-450, biotinylated in part of the assays)
T1 sequence: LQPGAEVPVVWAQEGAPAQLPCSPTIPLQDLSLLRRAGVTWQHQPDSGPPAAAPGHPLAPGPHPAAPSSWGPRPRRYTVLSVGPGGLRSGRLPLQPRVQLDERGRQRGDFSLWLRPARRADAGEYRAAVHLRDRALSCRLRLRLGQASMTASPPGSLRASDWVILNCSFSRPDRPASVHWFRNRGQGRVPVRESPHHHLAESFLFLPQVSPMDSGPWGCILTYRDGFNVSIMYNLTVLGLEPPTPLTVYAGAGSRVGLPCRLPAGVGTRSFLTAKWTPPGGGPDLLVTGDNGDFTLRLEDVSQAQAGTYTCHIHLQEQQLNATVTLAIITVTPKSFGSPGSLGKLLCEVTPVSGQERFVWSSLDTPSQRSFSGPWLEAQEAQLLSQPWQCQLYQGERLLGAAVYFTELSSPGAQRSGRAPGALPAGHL

B1: PD-1/LAG3 Bi-specific Construct C: aPD1 1353-G10 Vk1-39LC scFvFc zwB V262E; aLAG3 1449-G09.2 Fab zwA V262E (bispecific antibody, human IgG1, kappa)
scFv: EVQLVQSGAEVKKPGASVKVSCKASGYRFPHYGISWVRQAPGQGLEWMGWISAYNGNTNYAQKLQGRVTMTTDTSTNTAYMELRSLRSDDTAVYYCARDVDYGTGSGYWGQGTLVTVSSGGGGSGGGGSGGGGSDIQLTQSPSSLSASVGDRVTITCSGDALPKQYAYWYQQKPGKAPKLLIYKDTERPSGVPSRFSGSSSGTKVTLTISSLQPEDFATYYCQSADNSITYRVFGGGTKVEIKAAGSDQEPKSSDKTHTCPPCPAPELLGGPSVFLFPPKPKDTLMISRTPEVTCEVVDVSHEDPEVKFNWYVDGVEVHNAKTKPREEQYNSTYRVVSVLTVLHQDWLNGKEYKCKVSNKALPAPIEKTISKAKGQPREPQVYVLPPSREEMTKNQVSLLCLVKGFYPSDIAVEWESNGQPENNYLTWPPVLDSDGSFFLYSKLTVDKSRWQQGNVFSCSVMHEALHNHYTQKSLSLSPGK
heavy: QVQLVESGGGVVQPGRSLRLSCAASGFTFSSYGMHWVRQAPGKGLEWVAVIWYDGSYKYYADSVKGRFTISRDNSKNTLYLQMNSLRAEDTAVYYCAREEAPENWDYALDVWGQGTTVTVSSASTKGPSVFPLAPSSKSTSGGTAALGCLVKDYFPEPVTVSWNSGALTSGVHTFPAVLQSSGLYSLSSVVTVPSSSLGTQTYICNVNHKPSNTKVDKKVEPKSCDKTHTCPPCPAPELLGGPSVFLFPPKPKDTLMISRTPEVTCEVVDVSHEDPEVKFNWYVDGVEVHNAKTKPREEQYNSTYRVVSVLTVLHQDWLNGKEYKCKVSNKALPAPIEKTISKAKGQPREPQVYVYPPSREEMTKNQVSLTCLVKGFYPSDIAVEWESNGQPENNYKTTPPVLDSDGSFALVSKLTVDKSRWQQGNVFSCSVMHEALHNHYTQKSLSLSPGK
light: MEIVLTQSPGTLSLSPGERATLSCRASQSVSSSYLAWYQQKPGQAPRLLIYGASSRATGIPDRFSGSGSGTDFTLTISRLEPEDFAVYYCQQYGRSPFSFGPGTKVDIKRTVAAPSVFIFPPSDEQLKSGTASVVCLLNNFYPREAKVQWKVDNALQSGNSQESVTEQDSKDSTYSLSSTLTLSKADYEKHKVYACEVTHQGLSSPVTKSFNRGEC
notes: The N-terminal Met is not included
B2: PD-1/LAG3 Bi-specific Construct B: aPD1 1353-G10 scFvFc zwB R28T/P30D/H31S V262E; aLAG3 1449-G09.2 Fab zwA V262E (bispecific antibody, human IgG1, kappa)
scFv: EVQLVQSGAEVKKPGASVKVSCKASGYTFDSYGISWVRQAPGQGLEWMGWISAYNGNTNYAQKLQGRVTMTTDTSTNTAYMELRSLRSDDTAVYYCARDVDYGTGSGYWGQGTLVTVSSGGGGSGGGGSGGGGSSYELTQPPSVSVSPGQTARITCSGDALPKQYAYWYQQKPGQAPVMVIYKDTERPSGIPERFSGSSSGTKVTLTISGVQAEDEADYYCQSADNSITYRVFGGGTKVTVLAAGSDQEPKSSDKTHTCPPCPAPELLGGPSVFLFPPKPKDTLMISRTPEVTCEVVDVSHEDPEVKFNWYVDGVEVHNAKTKPREEQYNSTYRVVSVLTVLHQDWLNGKEYKCKVSNKALPAPIEKTISKAKGQPREPQVYVLPPSREEMTKNQVSLLCLVKGFYPSDIAVEWESNGQPENNYLTWPPVLDSDGSFFLYSKLTVDKSRWQQGNVFSCSVMHEALHNHYTQKSLSLSPGK
heavy: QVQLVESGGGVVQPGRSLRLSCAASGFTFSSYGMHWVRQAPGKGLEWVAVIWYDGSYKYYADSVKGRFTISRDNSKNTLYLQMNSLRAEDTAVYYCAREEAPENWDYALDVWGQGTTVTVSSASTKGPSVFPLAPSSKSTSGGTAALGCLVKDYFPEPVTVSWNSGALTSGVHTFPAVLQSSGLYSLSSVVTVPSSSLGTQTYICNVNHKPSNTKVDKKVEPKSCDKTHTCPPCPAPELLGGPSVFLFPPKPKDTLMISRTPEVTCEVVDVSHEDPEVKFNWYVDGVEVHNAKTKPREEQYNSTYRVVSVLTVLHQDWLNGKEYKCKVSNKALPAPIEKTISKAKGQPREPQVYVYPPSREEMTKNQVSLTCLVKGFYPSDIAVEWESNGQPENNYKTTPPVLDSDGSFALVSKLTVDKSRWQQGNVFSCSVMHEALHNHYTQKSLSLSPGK
light: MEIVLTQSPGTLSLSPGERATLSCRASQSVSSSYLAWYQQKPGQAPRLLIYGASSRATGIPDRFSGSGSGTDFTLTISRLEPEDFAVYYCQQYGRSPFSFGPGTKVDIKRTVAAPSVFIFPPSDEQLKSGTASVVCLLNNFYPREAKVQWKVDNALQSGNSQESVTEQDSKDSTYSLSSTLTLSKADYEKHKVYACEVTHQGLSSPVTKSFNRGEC
notes: as for B1

What was measured:
[1] = target: LAG3 (residues 1-477) C-terminally fused to the beta-galactosidase ProLink (PK) fragment, on U2OS cells (human); experiment: cell-based or functional assay
LAG3 (residues 1-477) C-terminally fused to the beta-galactosidase ProLink (PK) fragment, on U2OS cells (human), sequence (P18627 1-477): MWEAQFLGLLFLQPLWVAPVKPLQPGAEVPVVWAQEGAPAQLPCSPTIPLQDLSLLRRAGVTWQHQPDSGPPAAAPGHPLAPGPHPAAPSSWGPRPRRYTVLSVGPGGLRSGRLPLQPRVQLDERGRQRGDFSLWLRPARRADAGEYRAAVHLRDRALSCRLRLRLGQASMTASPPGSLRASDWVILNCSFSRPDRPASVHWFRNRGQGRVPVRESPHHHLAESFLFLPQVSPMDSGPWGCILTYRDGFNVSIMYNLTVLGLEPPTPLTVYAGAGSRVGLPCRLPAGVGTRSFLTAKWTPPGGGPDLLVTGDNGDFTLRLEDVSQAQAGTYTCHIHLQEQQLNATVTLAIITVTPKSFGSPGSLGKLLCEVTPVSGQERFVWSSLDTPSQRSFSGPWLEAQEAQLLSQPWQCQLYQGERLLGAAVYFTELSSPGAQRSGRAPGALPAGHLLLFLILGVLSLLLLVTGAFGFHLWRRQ

[2] = target: PD-1 (residues 1-199) C-terminally fused to the beta-galactosidase enzyme acceptor (EA) fragment, on U2OS … (human, UniProt Q15116 25-199); experiment: cell-based or functional assay
[3] = target: T2, rabbit Fc-tagged recombinant human PD1 (rhPD1-rabbit Fc) (human, UniProt Q15116 25-167, limits assumed); experiment: flow cytometry competition: inhibition of rhPD1-rabbit Fc binding to human PD-L1 on CHO cells; PE anti-rabbit IgG detection
T2 construct: also called recombinant human PD-1 protein
T2 sequence (Q15116 25-167 limits assumed): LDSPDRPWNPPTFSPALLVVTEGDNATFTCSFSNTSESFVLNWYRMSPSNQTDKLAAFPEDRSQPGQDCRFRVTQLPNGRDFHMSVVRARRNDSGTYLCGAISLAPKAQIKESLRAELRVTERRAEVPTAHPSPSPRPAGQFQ
Method: CHO-k cells stably expressing human PD-L1 or PD-L2 were used to measure the ability of anti-PD1/LAG3 bi-specific antibody constructs to block rabbit Fc-tagged recombinant human PD1 (rhPD1-rabbit Fc) protein binding. Cells were seeded at 100,000 cells/well in 100 μL of FACS buffer in 96-well polypropylene plates. The cells were centrifuged and resuspended with test antibodies (2× concentration) diluted in FACS buffer, immediately followed by equal volume of rhPD1-rabbit Fc (added at 2× concentration; 0.2 ng/mL and 0.1 ng/mL final for PD-L1 and PD-L2, respectively). Cells were incubated on ice for 1 hour and washed twice. rhPD1-rabbit Fc binding on CHO-human PD-L1 or PD-L2 cells was detected with R-Phycoerythrin AffiniPure F(ab′)₂ Fragment Goat Anti-Rabbit IgG (H+L) (1:200 dilution, Jackson ImmunoResearch) for 30 minutes. The cells were washed twice with FACS buffer, fixed in 4% paraformaldehyde in PBS for 20 mins on ice in the dark, washed twice with FACS buffer, and analyzed using the BD LSR II Flow Cytometer. Data were analyzed using FlowJo (FlowJo, LLC; Ashland, Oreg.) to determine mean fluorescence intensities. Prism 6 software was used to create one site, specific binding with Hill slope curves (Log transform) to determine IC₅₀ values.

[4] = target: T1, recombinant human LAG3 protein …; experiment: flow cytometry competition: inhibition of biotinylated rhLAG3 binding to MHC class II on Daudi cells; PE-streptavidin detection
Method: Daudi cells expressing Major Histocompatibility Class II (MHCII) molecules, the natural ligand for LAG3, were used to measure the ability of anti-PD1/LAG3 bi-specific antibody constructs to block biotinylated (ThermoFisher, Cat #21329) recombinant human LAG3 protein (rhLAG3, R&D Cat #2319-C3) binding. Cells were seeded at 100,000 cells/well in 100 μL of FACS buffer in 96-well polypropylene plates. The cells were centrifuged and resuspended with test antibodies (2× concentration) diluted in FACS buffer, immediately followed by equal volume of biotinylated rhLAG3 (added at 2× concentration; 7.5 μg/mL final). Cells were incubated on ice for 1 hour and washed twice. Biotinylated rhLAG3 binding was detected with 2 μg/mL R-Phycoerythrin-conjugated Streptavidin (eBioscience) for 30 minutes. Cells were washed twice with FACS buffer, fixed in 4% paraformaldehyde in PBS for 20 mins on ice in the dark, washed twice with FACS buffer, and analyzed using the BD LSR II Flow Cytometer. Data were analyzed using FlowJo (FlowJo, LLC; Ashland, Oreg.) to determine mean fluorescence intensities. Prism 6 software was used to create one site, specific binding with Hill slope curves (Log transform) to determine IC₅₀ values. […]

[5] = target: T3, hPD1 (Acro Biosystems), SPR analyte (human, UniProt Q15116 25-167); experiment: SPR (Biacore), antibody captured by anti-Fc, hPD1 as analyte, 25 C
T3 construct: also called human PD1 kinetics
T3 sequence (Q15116 25-167 limits assumed): as above
Method: Anti-Fc polyclonal antibodies were immobilized onto a CMS chip (GE Life Sciences) using amine coupling chemistry (from Amine Coupling Kit, GE Life Sciences). The immobilization steps were carried out at a flow rate of 25 μl/min in 1×HBS-EP+buffer (GE Life Sciences; 10× Stock diluted before use). The sensor surfaces were activated for 7 min with a mixture of NHS (0.05 M) and EDC (0.2 M). The Anti-Fc antibodies were injected over all 4 flow cells at a concentration of 25 ug/ml in 10 mM sodium acetate, pH 4.5, for 7 min. Ethanolamine (1 M, pH 8.5) was injected for 7 min to block any remaining activated groups. An average of 12,000 response units (RU) of capture antibody was immobilized on each flow cell.
Kinetic binding experiments were performed at 25° C. using 1×HBS-EP+buffer. Test and control antibodies were injected over the anti-Fc surface at concentrations of 5-10 μg/mL for 12 seconds at a flow rate of 10 μl/min on flow cells 2, 3 and 4, followed by a buffer wash for 30 seconds at the same flow rate. Kinetic characterization of antibody samples was carried out with a dilution series of antigen and 1 injection of 0 nM antigen. After capturing ligand (antibody) on the anti-Fc surface, the analyte (hPD1 or hLAG3, Acro Biosystems, Newark, Del.) was bound at 100, 25, 6.25 and 0 nM for 180 seconds, followed by a 450 second dissociation phase at a flow rate of 50 μl/min. Between each ligand capture and analyte binding cycle, regeneration was carried out using 2 injections of 10 mM Glycine pH 2.0 for 30 seconds at 30 μL/min, followed by a 30 second buffer wash step.
The data was fit with the Biacore T200 Evaluation software, using a 1:1 Langmuir binding model. KD (affinity, nM) was determined as a ratio of the kinetic rate constants calculated from the fits of the association and dissociation phases.

Row | EC50 of beta-galactosidase enzyme-fragment complementation (RLU) on U2OS cells co-expressing PD-1-EA and LAG3-PK; PD-1/LAG3 cell bridging, needs both targets [1] [nM] | EC50 of beta-galactosidase enzyme-fragment complementation (RLU) on U2OS cells co-expressing PD-1-EA and LAG3-PK; PD-1/LAG3 cell bridging, needs both targets [2] [nM] | IC50 [3] [nM] | IC50 [4] [nM] | Kd [5] [nM] | koff [5] [s⁻¹] | kon [5] [M⁻¹ s⁻¹] | Binder
1 | 0.13 | 0.13 | 2.4 | 24 | 1.29 | 0.000649 | 503000 | B1
2 | 0.16 | 0.16 | 4.7 | 24 | 4.37 | 0.00487 | 1.12e+06 | B2
